Source: patent publication US6432702 (NEW YORK UNIVERSITY, dated 2002)

Assays:
FGF receptor-1 (flg) [1] = target: T1, FGF receptor-1 (flg) (UniProt P16092 22-822, limits assumed); test: competition with 125I-bFGF on CHO 4-1 cells expressing FGF receptor-1
T1 construct: whole, on cells; also called flg receptor; CHO 4-1 cells

FGF receptor-1 (flg) [2] = target: T1, FGF receptor-1 (flg); test: Scatchard analysis, 125I-labeled ligand on CHO 4-1 cells expressing FGF receptor-1, 4 C
Procedure: Scatchard analysis of the binding of K-FGF and K-FGF-140 was performed on CHO 4-1 cells expressing the FGF receptor-1 as follows. Cells at 4.8×10^5/35mm dish were incubated at 4° C. with DMEM containing 0.15% gelatin, […].
In FIG. 7, Scatchard analysis of binding to high affinity receptors gave a straight line, indicating a single class of binding sites.

FGF receptor-2 (bek) = target: T2, FGF receptor-2 (bek) (UniProt P21803 22-821, limits assumed); test: competition with 125I-bFGF on CHO 3-7.5 cells expressing FGF receptor-2
T2 construct: whole, on cells; also called CHO 3-7.5 cells
T2 sequence (P21803 22-821 limits assumed): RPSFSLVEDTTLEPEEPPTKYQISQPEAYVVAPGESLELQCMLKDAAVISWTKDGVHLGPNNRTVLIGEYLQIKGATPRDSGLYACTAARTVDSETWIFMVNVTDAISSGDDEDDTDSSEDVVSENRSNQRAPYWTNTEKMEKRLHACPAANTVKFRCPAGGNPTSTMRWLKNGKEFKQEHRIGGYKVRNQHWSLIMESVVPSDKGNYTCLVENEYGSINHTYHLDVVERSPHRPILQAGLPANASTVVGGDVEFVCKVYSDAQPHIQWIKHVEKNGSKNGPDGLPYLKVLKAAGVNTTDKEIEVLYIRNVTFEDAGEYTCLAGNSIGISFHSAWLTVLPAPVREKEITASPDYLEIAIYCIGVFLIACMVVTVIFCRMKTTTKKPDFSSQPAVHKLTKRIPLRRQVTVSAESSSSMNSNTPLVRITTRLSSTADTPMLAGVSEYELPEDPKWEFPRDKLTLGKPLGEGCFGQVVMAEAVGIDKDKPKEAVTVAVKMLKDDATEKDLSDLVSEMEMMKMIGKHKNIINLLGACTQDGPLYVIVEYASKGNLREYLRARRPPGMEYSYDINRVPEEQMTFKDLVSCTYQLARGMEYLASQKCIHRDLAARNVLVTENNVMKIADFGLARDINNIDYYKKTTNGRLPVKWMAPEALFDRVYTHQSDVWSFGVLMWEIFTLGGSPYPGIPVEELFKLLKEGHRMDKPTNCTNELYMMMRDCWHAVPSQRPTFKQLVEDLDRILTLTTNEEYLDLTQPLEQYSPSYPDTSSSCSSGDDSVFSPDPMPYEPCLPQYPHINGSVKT

T1 sequence (P16092 22-822 limits assumed): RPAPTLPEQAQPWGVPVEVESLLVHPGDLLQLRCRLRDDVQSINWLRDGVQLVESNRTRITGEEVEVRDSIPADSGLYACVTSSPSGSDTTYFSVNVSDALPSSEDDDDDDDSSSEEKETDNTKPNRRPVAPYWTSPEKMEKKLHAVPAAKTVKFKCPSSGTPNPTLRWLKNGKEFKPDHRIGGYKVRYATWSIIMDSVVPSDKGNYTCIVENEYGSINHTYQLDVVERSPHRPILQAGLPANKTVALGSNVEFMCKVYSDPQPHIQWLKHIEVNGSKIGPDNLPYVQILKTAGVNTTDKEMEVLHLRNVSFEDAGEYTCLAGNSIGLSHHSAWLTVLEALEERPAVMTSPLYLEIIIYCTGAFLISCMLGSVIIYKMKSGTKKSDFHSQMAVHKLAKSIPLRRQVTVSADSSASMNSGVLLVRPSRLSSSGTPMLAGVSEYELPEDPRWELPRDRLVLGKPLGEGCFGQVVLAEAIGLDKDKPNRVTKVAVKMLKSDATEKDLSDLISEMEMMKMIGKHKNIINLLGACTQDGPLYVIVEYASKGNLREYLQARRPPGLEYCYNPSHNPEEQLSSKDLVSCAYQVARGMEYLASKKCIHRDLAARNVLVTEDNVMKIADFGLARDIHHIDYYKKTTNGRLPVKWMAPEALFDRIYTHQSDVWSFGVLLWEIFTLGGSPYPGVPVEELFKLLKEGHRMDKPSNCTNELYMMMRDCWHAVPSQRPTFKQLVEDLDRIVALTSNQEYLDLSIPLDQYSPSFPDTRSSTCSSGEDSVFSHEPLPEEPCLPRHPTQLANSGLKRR

B1: K-FGF (full-length mature human growth factor) (ligand)
chain: APTAPNGTLEAELERRWESLVALSLARLPVAAQPKEAAVQSGAGDYLLGIKRLRRLYCNVGIGFHLQALPDGRIGGAHADTRDSLLELSPVERGVVSIFGVASRFFVAMSSKGKLYGSPFFTDECTFKEILLPNNYNAYESYKYPGMFIALSKNGKTKKGNRVSPTMKVTHFLPRL
notes: also called full-length K-FGF; FGF-4
- fold more competitor needed than bFGF or K-FGF-140 (FGF receptor-1 (flg) [1]): ~8 fold
- Kd (FGF receptor-1 (flg) [2]): ~285 pM

B2: K-FGF-140 (truncated K-FGF) (ligand)
chain: AAVQSGAGDYLLGIKRLRRLYCNVGIGFHLQALPDGRIGGAHADTRDSLLELSPVERGVVSIFGVASRFFVAMSSKGKLYGSPFFTDECTFKEILLPNNYNAYESYKYPGMFIALSKNGKTKKGNRVSPTMKVTHFLPRL
notes: Unglycosylated, 140 residues, about 14,000 Daltons; also called truncated mammalian growth factor; truncated protein
- fold higher affinity than bFGF or full-length K-FGF (FGF receptor-2 (bek)): ~3 fold
- Kd (FGF receptor-1 (flg) [2]): ~95 pM
- fold higher affinity than full-length K-FGF (FGF receptor-1 (flg) [2]): ~3 fold
